In IntAct's records for PubMed 21840486:

B1: Protein PML (Homo sapiens), P29590-1 (parent)
chain: MEPAPARSPRPQQDPARPQEPTMPPPETPSEGRQPSPSPSPTERAPASEEEFQFLRCQQCQAEAKCPKLLPCLHTLCSGCLEASGMQCPICQAPWPLGADTPALDNVFFESLQRRLSVYRQIVDAQAVCTRCKESADFWCFECEQLLCAKCFEAHQWFLKHEARPLAELRNQSVREFLDGTRKTNNIFCSNPNHRTPTLTSIYCRGCSKPLCCSCALLDSSHSELKCDISAEIQQRQEELDAMTQALQEQDSAFGAVHAQMHAAVGQLGRARAETEELIRERVRQVVAHVRAQERELLEAVDARYQRDYEEMASRLGRLDAVLQRIRTGSALVQRMKCYASDQEVLDMHGFLRQALCRLRQEEPQSLQAAVRTDGFDEFKVRLQDLSSCITQGKDAAVSKKASPEAASTPRDPIDVDLPEEAERVKAQVQALGLAEAQPMAVVQSVPGAHPVPVYAFSIKGPSYGEDVSNTTTAQKRKCSQTQCPRKVIKMESEEGKEARLARSSPEQPRPSTSKAVSPPHLDGPPSPRSPVIGSEVFLPNSNHVASGAGEAEERVVVISSSEDSDAENSSSRELDDSSSESSDLQLEGPSTLRVLDENLADPQAEDRPLVFFDLKIDNETQKISQLAAVNRESKFRVVIQPEAFFSIYSKAVSLEVGLQHFLSFLSSMRRPILACYKLWGPGLPNFFRALEDINRLWEFQEAISGFLAALPLIRERVPGASSFKLKNLAQTYLARNMSERSAMAAVLAMRDLCRLLEVSPGPQLAQHVYPFSSLQCFASLQPLVQAAVLPRAEARLLALHNVSFMELLSAHRRDRQGGLKKYSRYLSLQTTTLPPAQPAFNLQALGTYFEGLLEGPALARAEGVSTPLAGRGLAERASQQS
partner: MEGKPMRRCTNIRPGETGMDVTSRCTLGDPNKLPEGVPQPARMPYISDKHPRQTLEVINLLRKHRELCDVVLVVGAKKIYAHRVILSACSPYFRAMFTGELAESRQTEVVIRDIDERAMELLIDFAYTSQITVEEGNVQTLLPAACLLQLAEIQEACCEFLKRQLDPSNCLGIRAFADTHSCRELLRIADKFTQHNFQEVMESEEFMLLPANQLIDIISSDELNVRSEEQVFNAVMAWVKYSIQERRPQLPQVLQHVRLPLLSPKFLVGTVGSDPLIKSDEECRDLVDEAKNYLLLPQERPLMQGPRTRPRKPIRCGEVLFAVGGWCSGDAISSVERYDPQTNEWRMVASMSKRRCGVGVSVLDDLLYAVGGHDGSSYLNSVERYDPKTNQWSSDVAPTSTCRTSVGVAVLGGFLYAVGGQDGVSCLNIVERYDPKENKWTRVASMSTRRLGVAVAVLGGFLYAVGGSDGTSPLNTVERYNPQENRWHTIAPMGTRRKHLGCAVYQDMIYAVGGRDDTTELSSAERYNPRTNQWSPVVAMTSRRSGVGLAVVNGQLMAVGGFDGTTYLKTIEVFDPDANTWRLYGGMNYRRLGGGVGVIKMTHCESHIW

Variants of: B1
Conditions: with klh20_human KLHL20, Q9Y2M5

| effect of a mutation on the interaction | Variant |
| --- | --- |
| disrupting interaction | S518A |

Variants of: B1
Conditions: with klh20_human KLHL20, Q9Y2M5
Remark: another data set of the same source

| effect of a mutation on the interaction | Variant |
| --- | --- |
| disrupting interaction | S518A |
